Measurements from FireProtDB (doi:10.1111/j.1399-3011.1982.tb00898.x).

B1: Tryptophan synthase alpha chain, P0A877 (parent)
chain: MERYESLFAQLKERKEGAFVPFVTLGDPGIEQSLKIIDTLIEAGADALELGIPFSDPLADGPTIQNATLRAFAAGVTPAQCFEMLALIRQKHPTIPIGLLMYANLVFNKGIDEFYAQCEKVGVDSVLVADVPVEESAPFRQAALRHNVAPIFICPPNADDDLLRQIASYGRGYTYLLSRAGVTGAENRAALPLNHLVAKLKEYNAAPPLQGFGISAPDQVKAAIDAGAAGAISGSAIVKIIEQHINEPEKMLAALKVFVQPMKAATRS

Variants of: B1
Conditions: Escherichia coli (strain K12), Thermal, DSC, structure 1WQ5, whole UniProt chain shown
[1] = pH 7, 25 °C, potassium phosphate 1 mM, reversible: yes(<50%)
[2] = pH 7, potassium phosphate 1 mM, reversible: yes(<50%)
[3] = pH 9.3, 25 °C, sodium tetraborate 1 mM, reversible: yes(>70%)
[4] = pH 9.3, sodium tetraborate 1 mM, reversible: yes(>70%)

Variant	heat capacity change of unfolding [1] [kcal/mol/K]	unfolding free energy [1] [kcal/mol]	Tm [2] [°C]	heat capacity change of unfolding [2] [kcal/mol/K]	heat capacity change of unfolding [3] [kcal/mol/K]	unfolding free energy [3] [kcal/mol]	Tm [4] [°C]	heat capacity change of unfolding [4] [kcal/mol/K]
E49S	2.9	7.7	60.5	2.9	2.9	7.1	58.6	2.9
E49Q	2.9	7.4	–	–	2.9	8.4	62.4	2.9
